From the RNAGym collection of RNA variant scans (doi:10.7554/elife.80360)

B1: Twister Ribozyme (parent)
chain: AACACUGCCAAUGCCGGUCCCAAGCCCGGAUAAAAGUGGAGGGGGCGG

Variants of: B1
Test: self-cleavage, relative activity (ratio to wild type); higher = more cleavage; co-transcriptional

| Variant | self-cleavage |
| --- | --- |
| AACACUGCCAAUGCCGGUCCCAAGCCCGGAUAAAAGUGGAGGGGGCUC [G47U G48C] | 1.36 |
| AACACUGCCAAUGCCGGUCCCAAGCCCGGAUAAAAGUGGAGGGGGCCC [G47C G48C] | 0.799 |
| AACACUGCCAAUGCCGGUCCCAAGCCCGGAUAAAAGUGGAGGGGGCCU [G47C G48U] | 0.4 |
| AACACUGCCAAUGCCGGUCCCAAGCCCGGAUAAAAGUGGAGGGGUCAG [G45U G47A] | 0.771 |
| AACACUGCCAAUGCCGGUCCCAAGCCCGGAUAAAAGUGGAGGGGUGGG [G45U C46G] | 0.52 |
| AACACUGCCAAUGCCGGUCCCAAGCCCGGAUAAAAGUGGAGGGGUUGG [G45U C46U] | 0.669 |
| AACACUGCCAAUGCCGGUCCCAAGCCCGGAUAAAAGUGGAGGGGCCGU [G45C G48U] | 0.577 |
| AACACUGCCAAUGCCGGUCCCAAGCCCGGAUAAAAGUGGAGGGGGUUG [C46U G47U] | 1.02 |
| AACACUGCCAAUGCCGGUCCCAAGCCCGGAUAAAAGUGGAGGGGGCAU [G47A G48U] | 1.47 |
| AACACUGCCAAUGCCGGUCCCAAGCCCGGAUAAAAGUGGAGGGGGAGC [C46A G48C] | 0.995 |
| AACACUGCCAAUGCCGGUCCCAAGCCCGGAUAAAAGUGGAGGGGGGCG [C46G G47C] | 0.981 |
| AACACUGCCAAUGCCGGUCCCAAGCCCGGAUAAAAGUGGAGGGGGAAG [C46A G47A] | 1.03 |
| AACACUGCCAAUGCCGGUCCCAAGCCCGGAUAAAAGUGGAGGGGGACG [C46A G47C] | 0.952 |
| AACACUGCCAAUGCCGGUCCCAAGCCCGGAUAAAAGUGGAGGGGGAUG [C46A G47U] | 0.832 |
| AACACUGCCAAUGCCGGUCCCAAGCCCGGAUAAAAGUGGAGGGGGGGU [C46G G48U] | 1.52 |
| AACACUGCCAAUGCCGGUCCCAAGCCCGGAUAAAAGUGGAGGGGGGGC [C46G G48C] | 1.55 |
| AACACUGCCAAUGCCGGUCCCAAGCCCGGAUAAAAGUGGAGGGGGGGA [C46G G48A] | 1 |
| AACACUGCCAAUGCCGGUCCCAAGCCCGGAUAAAAGUGGAGGGGGUGC [C46U G48C] | 1.1 |
